According to the supplement of paper PMC7877785:
± gives the uncertainty stated by the source.

Test: self-splicing fitness, log relative to wild type (ln ratio); higher = more splicing; Tetrahymena group I intron in knt gene, E. coli kanamycin selection, DiMSum; sequences stand for … in CUCUCU…GGAGGGAAAAGUUAUCAGGCAUGCACCUGGUAGCUAGUCUUUAAACCAAUAGAUUGCAUCGGUUUAAAAGGCAAGACCGUCAAAUUGCGGGAAAGGGGUCAACAGCCGUUCAGUACCAAGUCUCAGGGGAAACUUUGAGAUGGCCUUGCAAAGGGUAUGGUAAUAAGCUGACGGACAUGGUCCUAACCACGCAGCCAAGUCCUAAGUCAACAGAUCUUCUGUUGAUAUGGAUGCAGUUCACAGACUAAAUGUCGGUCGGGGAAGAUGUAUUCUUCUCAUAAGAUAUAGUCGGACCUCUCCUUAAUGGGAGCUAGCGGAUGAAGUGAUGCAACACUGGAGCCGCUGGGAACUAAUUUGUAUGCGAAAGUAUAUUGAUUAGUUUUGGAGUACUCGUGGUCG
Outline: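 Library with all eight P1ex-region intron nucleotides randomised, intron inside the knt kanamycin-resistance gene on pET-22b(+), in E. coli BL21(DE3). Cells grew overnight at 37°C or 30°C on LB agar with or without 25 μg/mL kanamycin (plus 100 μg/mL carbenicillin, 50 μM IPTG, 0.2% rhamnose), in six replicate transformations. Pooled colonies were amplicon-sequenced on Illumina HiSeq 2500. DiMSum fitness is the error-weighted combination of wild-type-normalised replicate fold changes, kanamycin versus none.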

## CGCUAGCAAUAUUACGCAUC
30 °C
  self-splicing fitness (ln): -3.88 ± 0.36
37 °C
  self-splicing fitness (ln): -2.66 ± 0.29

## CGCUAGCAAUAUUACGCCUA
30 °C
  self-splicing fitness (ln): -2.65 ± 0.25
37 °C
  self-splicing fitness (ln): -3.05 ± 0.28

## CGCUAGCAAUAUUACGCGGA
30 °C
  self-splicing fitness (ln): -3.21 ± 0.17
37 °C
  self-splicing fitness (ln): -1.73 ± 0.099

## CGCUAGCAAUAUUACGCUAA
30 °C
  self-splicing fitness (ln): -1.93 ± 0.22
37 °C
  self-splicing fitness (ln): -1.53 ± 0.25

## CGCUAGCAAUAUUACGCUAU
37 °C
  self-splicing fitness (ln): -2.46 ± 0.27

## CGCUAGCAAUAUUACGCUUU
30 °C
  self-splicing fitness (ln): -3.13 ± 0.18
37 °C
  self-splicing fitness (ln): -2.32 ± 0.2

## CGCUAGCAAUAUUACGGAAG
30 °C
  self-splicing fitness (ln): -1.7 ± 0.16
37 °C
  self-splicing fitness (ln): 0.348 ± 0.17

## CGCUAGCAAUAUUACGGAGA
37 °C
  self-splicing fitness (ln): -2.2 ± 0.36

## CGCUAGCAAUAUUACGGAGG
30 °C
  self-splicing fitness (ln): -1.78 ± 0.099
37 °C
  self-splicing fitness (ln): -0.655 ± 0.13

## CGCUAGCAAUAUUACGGCAU
30 °C
  self-splicing fitness (ln): -1.89 ± 0.093
37 °C
  self-splicing fitness (ln): -0.622 ± 0.083

## CGCUAGCAAUAUUACGGCCA
30 °C
  self-splicing fitness (ln): -0.309 ± 0.16
37 °C
  self-splicing fitness (ln): -0.364 ± 0.2

## CGCUAGCAAUAUUACGGUCC
30 °C
  self-splicing fitness (ln): -1.48 ± 0.12
37 °C
  self-splicing fitness (ln): -0.153 ± 0.15

## CGCUAGCAAUAUUACGGUUG
30 °C
  self-splicing fitness (ln): -2.07 ± 0.055
37 °C
  self-splicing fitness (ln): -0.803 ± 0.072

## CGCUAGCAAUAUUACGGUUU
30 °C
  self-splicing fitness (ln): -1.69 ± 0.053
37 °C
  self-splicing fitness (ln): -0.856 ± 0.074

## CGCUAGCAAUAUUACGUCGC
30 °C
  self-splicing fitness (ln): -2.3 ± 0.33

## CGCUAGCAAUAUUACGUCUU
37 °C
  self-splicing fitness (ln): -0.855 ± 0.16

## CGCUAGCAAUAUUACGUGUC
30 °C
  self-splicing fitness (ln): -2.34 ± 0.13
37 °C
  self-splicing fitness (ln): -2.78 ± 0.17

## CGCUAGCAAUAUUACGUUCA
30 °C
  self-splicing fitness (ln): -1.39 ± 0.12
37 °C
  self-splicing fitness (ln): -1.68 ± 0.14

## CGGAAGCAAUAUUACGACGC
37 °C
  self-splicing fitness (ln): -0.637 ± 0.37

## CGGAAGCAAUAUUACGACUU
30 °C
  self-splicing fitness (ln): -1.28 ± 0.084
37 °C
  self-splicing fitness (ln): 0.261 ± 0.089

## CGGAAGCAAUAUUACGAGGU
30 °C
  self-splicing fitness (ln): -4.22 ± 0.39
37 °C
  self-splicing fitness (ln): -2.42 ± 0.35

## CGGAAGCAAUAUUACGAUCU
30 °C
  self-splicing fitness (ln): -1.11 ± 0.12
37 °C
  self-splicing fitness (ln): -0.942 ± 0.15

## CGGAAGCAAUAUUACGCUAU
30 °C
  self-splicing fitness (ln): -3.66 ± 0.25
37 °C
  self-splicing fitness (ln): -2.13 ± 0.2

## CGGAAGCAAUAUUACGGAUA
30 °C
  self-splicing fitness (ln): -3.36 ± 0.41
37 °C
  self-splicing fitness (ln): -1.81 ± 0.18

## CGGAAGCAAUAUUACGGCAU
30 °C
  self-splicing fitness (ln): -3.02 ± 0.34
37 °C
  self-splicing fitness (ln): -1.55 ± 0.3

## CGGAAGCAAUAUUACGGCGA
30 °C
  self-splicing fitness (ln): -0.522 ± 0.3

## CGGAAGCAAUAUUACGGCUC
30 °C
  self-splicing fitness (ln): -4.04 ± 0.25
37 °C
  self-splicing fitness (ln): -2.51 ± 0.24

## CGGAAGCAAUAUUACGGCUG
30 °C
  self-splicing fitness (ln): -1.79 ± 0.094
37 °C
  self-splicing fitness (ln): -1.36 ± 0.099

## CGGAAGCAAUAUUACGGGUA
30 °C
  self-splicing fitness (ln): -3.4 ± 0.23
37 °C
  self-splicing fitness (ln): -2.07 ± 0.14

## CGGAAGCAAUAUUACGGUAU
30 °C
  self-splicing fitness (ln): -4.04 ± 0.16
37 °C
  self-splicing fitness (ln): -1.95 ± 0.098

## CGGAAGCAAUAUUACGGUCU
30 °C
  self-splicing fitness (ln): -1.38 ± 0.074
37 °C
  self-splicing fitness (ln): -0.791 ± 0.099

## CGGAAGCAAUAUUACGUAAG
30 °C
  self-splicing fitness (ln): -0.619 ± 0.072
37 °C
  self-splicing fitness (ln): 0.241 ± 0.1

## CGGAAGCAAUAUUACGUACU
30 °C
  self-splicing fitness (ln): -0.218 ± 0.071
37 °C
  self-splicing fitness (ln): -0.296 ± 0.096

## CGGAAGCAAUAUUACGUAUC
30 °C
  self-splicing fitness (ln): -3.82 ± 0.21
37 °C
  self-splicing fitness (ln): -2.81 ± 0.22

## CGGAAGCAAUAUUACGUCAA
37 °C
  self-splicing fitness (ln): -3.55 ± 0.42

## CGGAAGCAAUAUUACGUCGU
37 °C
  self-splicing fitness (ln): -2.21 ± 0.36

## CGGAAGCAAUAUUACGUGGG
30 °C
  self-splicing fitness (ln): -3.23 ± 0.13
37 °C
  self-splicing fitness (ln): -2.85 ± 0.18

## CGGAAGCAAUAUUACGUUAC
37 °C
  self-splicing fitness (ln): -2.57 ± 0.2

## CGGAAGCAAUAUUACGUUAG
30 °C
  self-splicing fitness (ln): -1.41 ± 0.061
37 °C
  self-splicing fitness (ln): -0.697 ± 0.077

## CGGCAGCAAUAUUACGAAAC
30 °C
  self-splicing fitness (ln): -3.19 ± 0.33
37 °C
  self-splicing fitness (ln): -2.93 ± 0.25

## CGGCAGCAAUAUUACGAAAU
30 °C
  self-splicing fitness (ln): -3.82 ± 0.33
37 °C
  self-splicing fitness (ln): -2.76 ± 0.33

## CGGCAGCAAUAUUACGAACU
30 °C
  self-splicing fitness (ln): -1.15 ± 0.44
37 °C
  self-splicing fitness (ln): -0.121 ± 0.34

## CGGCAGCAAUAUUACGAUCA
30 °C
  self-splicing fitness (ln): -1.08 ± 0.11
37 °C
  self-splicing fitness (ln): -0.194 ± 0.11

## CGGCAGCAAUAUUACGAUGC
30 °C
  self-splicing fitness (ln): -3.41 ± 0.29
37 °C
  self-splicing fitness (ln): -1.6 ± 0.32

## CGGCAGCAAUAUUACGAUGG
30 °C
  self-splicing fitness (ln): -0.549 ± 0.083
37 °C
  self-splicing fitness (ln): -0.741 ± 0.093

## CGGCAGCAAUAUUACGCAGC
30 °C
  self-splicing fitness (ln): -3.98 ± 0.34
37 °C
  self-splicing fitness (ln): -1.71 ± 0.2

## CGGCAGCAAUAUUACGCAGG
30 °C
  self-splicing fitness (ln): -2.02 ± 0.093
37 °C
  self-splicing fitness (ln): -1.33 ± 0.12

## CGGCAGCAAUAUUACGCCAU
30 °C
  self-splicing fitness (ln): -3.11 ± 0.2
37 °C
  self-splicing fitness (ln): -1.6 ± 0.16

## CGGCAGCAAUAUUACGCCGU
30 °C
  self-splicing fitness (ln): -3.6 ± 0.29
37 °C
  self-splicing fitness (ln): -2.29 ± 0.19

## CGGCAGCAAUAUUACGCGUG
30 °C
  self-splicing fitness (ln): -1.47 ± 0.1
37 °C
  self-splicing fitness (ln): -0.594 ± 0.11
